Laboratory results taken from PMC3866193.

Columns and labels:
[1] = molecular target: Alexa Fluor 568-labeled GluA2 amino terminal domain; test: FRET or BRET; kinetic FRET in a spectrofluorometer, 20°C, excitation 495 nm, emission 603 nm; 50 nM donor-labeled and 50 nM AF568-labeled GluA2 ATD pre-equilibrated (30 min DL488, 60 min FAM), then 1 µM unlabeled GluA2 ATD added; decay fitted with exponential functions
[2] = molecular target: EGFP-GluA2 ATD fusion protein; test: AUC; fluorescence-detected sedimentation velocity (FDS-SV), dilution series of labeled protein (Figure 3); 50,000 rpm, 20°C; 20 mM Na phosphate pH 7.5, 150 mM NaCl, 1 mM EDTA, 0.1 mg/mL BSA carrier; sw isotherm fitted with a monomer-dimer model; dimer to monomers

Sequence of Alexa Fluor 568-labeled GluA2 amino terminal domain (P19491 whole entry, the tested form may be a part): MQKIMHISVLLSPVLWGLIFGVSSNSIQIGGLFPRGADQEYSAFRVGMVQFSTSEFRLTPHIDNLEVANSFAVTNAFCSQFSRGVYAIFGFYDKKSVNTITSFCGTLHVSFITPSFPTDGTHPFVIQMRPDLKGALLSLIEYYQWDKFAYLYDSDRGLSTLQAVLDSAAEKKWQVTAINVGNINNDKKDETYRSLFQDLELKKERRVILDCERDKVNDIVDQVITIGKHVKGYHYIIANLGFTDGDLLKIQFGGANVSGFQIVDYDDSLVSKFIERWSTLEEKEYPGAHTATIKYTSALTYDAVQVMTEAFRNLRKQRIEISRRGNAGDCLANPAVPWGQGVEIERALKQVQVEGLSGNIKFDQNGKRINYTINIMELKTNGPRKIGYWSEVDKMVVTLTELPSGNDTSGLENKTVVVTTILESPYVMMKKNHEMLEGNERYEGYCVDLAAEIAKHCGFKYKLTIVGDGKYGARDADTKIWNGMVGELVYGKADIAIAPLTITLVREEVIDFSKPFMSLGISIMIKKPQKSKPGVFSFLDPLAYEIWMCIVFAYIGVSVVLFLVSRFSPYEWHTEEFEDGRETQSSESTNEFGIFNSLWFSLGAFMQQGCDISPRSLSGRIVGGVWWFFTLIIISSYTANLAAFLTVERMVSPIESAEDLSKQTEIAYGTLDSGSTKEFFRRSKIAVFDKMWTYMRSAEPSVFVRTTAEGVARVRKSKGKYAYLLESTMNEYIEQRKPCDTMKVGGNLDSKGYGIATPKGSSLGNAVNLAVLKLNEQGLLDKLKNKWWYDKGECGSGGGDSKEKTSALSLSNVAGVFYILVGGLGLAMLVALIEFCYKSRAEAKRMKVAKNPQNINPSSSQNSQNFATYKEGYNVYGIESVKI

half life of the donor/acceptor heterodimer (single-exponential decay) [1]: 3.27 min | Kd [2]: 25.4 nM | stoichiometry N [2]: 2
B1: EGFP-GluA2 ATD fusion protein (domain or fragment)
chain: NSIQIGGLFPRGADQEYSAFRVGMVQFSTSEFRLTPHIDNLEVANSFAVTNAFCSQFSRGVYAIFGFYDKKSVNTITSFCGTLHVSFITPSFPTDGTHPFVIQMRPDLKGALLSLIEYYQWDKFAYLYDSDRGLSTLQAVLDSAAEKKWQVTAINVGNINNDKKDETYRSLFQDLELKKERRVILDCERDKVNDIVDQVITIGKHVKGYHYIIANLGFTDGDLLKIQFGGANVSGFQIVDYDDSLVSKFIERWSTLEEKEYPGAHTATIKYTSALTYDAVQVMTEAFRNLRKQRIEISRRGNAGDCLANPAVPWGQGVEIERALKQVQVEGLSGNIKFDQNGKRINYTINIMELKTNGPRKIGYWSEVDKMVVTLTELPS
modifications: not checked
